Experimental data as given in the supplement of paper PMC12042874.
± gives the uncertainty stated by the source.

Test: amyloid nucleation score (Sup35N fusion, yeast selection) (log enrichment); library NNK3; higher = more nucleation; inactive = no reads after selection
Procedure, shortened: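 Growth for 7 days at 30°C on medium lacking adenine and uracil followed a 24-hour induction with 100 μM copper sulfate of psi-negative yeast expressing peptides of 20 random codons fused to Sup35N. Input and output plasmid inserts were sequenced with Illumina, and sequences with under 100 input reads were excluded. Nucleation score is the DiMSum log enrichment of output over input reads, centred on the mode score of non-aggregating sequences.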
In the case of NHMCSVYRWQSLERVVCKGI, the amyloid nucleation score is reported as “inactive”. For LYIIKSR, the amyloid nucleation score was -0.51 ± 1.7. For GKARQSLHIGSSLLTFMA, the amyloid nucleation score was “inactive”. In the case of YFATRDFAWVFENGSIEGAT, the amyloid nucleation score is reported as “inactive”. With NIIEPFKWTTTSLYNSDFYF the amyloid nucleation score was “inactive”. With YNHSMGWVCSAFDAKVRILR the amyloid nucleation score was “inactive”. For CTSTAVLGSVLCK, the amyloid nucleation score was “inactive”. In the case of AVTDLDIFICSG, the amyloid nucleation score is reported as “inactive”. With VDIGYQMQGFLGICSDY the amyloid nucleation score was “inactive”. For KITLDYRLGHVDRQTTISVK, the amyloid nucleation score was “inactive”. For ISLVAAKLRTCF, the amyloid nucleation score was “inactive”. NIMYLIWWILGKRHVCNPWE showed an amyloid nucleation score of -0.805 ± 1.1. In the case of ILYICHINKGVGGQIGVMAV, the amyloid nucleation score is reported as “inactive”. Work on WACCGICSCL yielded an amyloid nucleation score of 2.02 ± 0.094. With IHFNWLIYITNTYVRRIFRC the amyloid nucleation score was “inactive”. With LPYTVQAVVIRVDKSYVSSV the amyloid nucleation score was “inactive”. With LDIFKISDTWMFDGQLTHLL the amyloid nucleation score was “inactive”. With PLGSLHSATQRYVSRLGILS the amyloid nucleation score was “inactive”. In the case of RWLLMYLLLRSTATN, the amyloid nucleation score is reported as “inactive”. For CVFNMLEQ, the amyloid nucleation score was “inactive”. In the case of QRRAL, the amyloid nucleation score is reported as “inactive”. Work on SNSYYWPNLYVFSTVNMVSD yielded an amyloid nucleation score of 2 ± 0.098. With RILFDAARRIRWTVMCTKSC the amyloid nucleation score was “inactive”. With VCFFGLYVLKDN the amyloid nucleation score was “inactive”. For HVLSVQTLYLFCKGLKESGT, the amyloid nucleation score was 0.809 ± 0.16. For NMMFILGFFNNKY, the amyloid nucleation score was 2.38 ± 0.076. In the case of SRHTICHKQNSCRKVLSPPH, the amyloid nucleation score is reported as “inactive”. For RSMIWRKCF, the amyloid nucleation score was “inactive”. For ADLATYLTDLTERDAILSPP, the amyloid nucleation score was 0.424 ± 0.39. For YWGIDHRIAGYIC, the amyloid nucleation score was “inactive”. In the case of SIAIHSMLKYNVPLVSRHSG, the amyloid nucleation score is reported as “inactive”. For VCIVVGARGGGYVLRTPLRG, the amyloid nucleation score was “inactive”. With LTQLTIIKTGLTCLMA the amyloid nucleation score was “inactive”. For YVSSRNRHYGSPYLGVCVFK, the amyloid nucleation score was “inactive”. With KTLWHEVRGDDSNVSSCWFS the amyloid nucleation score was “inactive”. In the case of WCAVMPFRSVTSNVIFDLSV, the amyloid nucleation score is reported as “inactive”. For TCSTGAGNFCVCDFRLVRMR, the amyloid nucleation score was “inactive”. For KLCYNNCVNLLII, the amyloid nucleation score was 0.716 ± 0.13. Work on PGRGLMRLYCYRFEIKTTEP yielded an amyloid nucleation score of 0.82 ± 0.23. In the case of LNNRA, the amyloid nucleation score is reported as “inactive”. In the case of LPGNLYFYVTGTCDNYLTVW, the amyloid nucleation score is reported as “inactive”. For MRMTTYSGIRVGIIERIMIN, the amyloid nucleation score was “inactive”. With LVINL the amyloid nucleation score was “inactive”. WNVELSNLVEIMGRCACYSS gave an amyloid nucleation score of 0.406 ± 0.35. With CCTSA the amyloid nucleation score was “inactive”. With HIVSSAMSVT the amyloid nucleation score was “inactive”. With STWDLNMCLFRYMFKI the amyloid nucleation score was “inactive”. With LCHYYLRSKLMAFDMLAFPS the amyloid nucleation score was “inactive”. In the case of YYLCYLSVHLSMIGCKEKGR, the amyloid nucleation score is reported as “inactive”. With VRNLLKMTFR the amyloid nucleation score was “inactive”. For NMFRRPTVCTVQEQVTEMRV, the amyloid nucleation score was “inactive”. In the case of SILKFNQSLQSLFSNYYHLC, the amyloid nucleation score is reported as 1.14 ± 0.097. For GNSHLSCERSCNIKMCMSGG, the amyloid nucleation score was “inactive”. With HELELRFLSGWSREFLELEG the amyloid nucleation score was “inactive”. With YSKRSLDYI the amyloid nucleation score was “inactive”. QNILLNVIVTRFGSLQWRSE gave an amyloid nucleation score of 1.83 ± 0.056. With HRYYYFF the amyloid nucleation score was 1.83 ± 0.093. With CTRITHGGGVTSLRNTSESN the amyloid nucleation score was “inactive”. Work on NTWISMVCLLLLSDSNHTVV yielded an amyloid nucleation score of 1.84 ± 0.082. YGYALVFTFYVGLNSVNRLR showed an amyloid nucleation score of 0.801 ± 0.3. In the case of SIHCIYSWR, the amyloid nucleation score is reported as 1.27 ± 0.12. In the case of LRASFWECLCCCVVR, the amyloid nucleation score is reported as 2.33 ± 0.073. For VGHSNNQFSGFEMCHDNTLL, the amyloid nucleation score was “inactive”. For FFEFRSASYWGPSQYRNMCT, the amyloid nucleation score was “inactive”. For NTMLKSVMVFWRMLDFRFRL, the amyloid nucleation score was “inactive”. Substance RQDLSHSFSDGRERQHWAKR has an amyloid nucleation score of -0.165 ± 0.81. For LLLPIS, the amyloid nucleation score was “inactive”. LFKLSMQLCNT gave an amyloid nucleation score of 1.71 ± 0.076. In the case of FFLYSNIFQLS, the amyloid nucleation score is reported as 2.32 ± 0.092. For RCTVNRRQSRSAHGMGPSSS, the amyloid nucleation score was “inactive”. For PFRFVKNLCGATG, the amyloid nucleation score was “inactive”. In the case of MIRVSHNRNASDQLRFASSL, the amyloid nucleation score is reported as “inactive”. With YKYDRFWKVFHQGRTLVAGG the amyloid nucleation score was “inactive”. With INLTYRVTVRVQISAPGMCA the amyloid nucleation score was -0.206 ± 0.65. With HTYLFRSMS the amyloid nucleation score was “inactive”. In the case of LDRSVIIVSLILS, the amyloid nucleation score is reported as 1.87 ± 0.072. In the case of GMDKRNNYMSIIDWRVPHSI, the amyloid nucleation score is reported as “inactive”. With AIAWYLLLHSRRMIWCINCP the amyloid nucleation score was “inactive”. In the case of LIVGKNNVPMFTSNKFLVFS, the amyloid nucleation score is reported as -0.508 ± 0.8. With GLGWNWDWR the amyloid nucleation score was “inactive”. For TMAEGL, the amyloid nucleation score was “inactive”. Work on MDNLCGVVFCGSWSVVYSAR yielded an amyloid nucleation score of 3.35 ± 0.06. With IRLFHEAIKGDLC the amyloid nucleation score was “inactive”. In the case of GNMLSPI, the amyloid nucleation score is reported as “inactive”. In the case of CYVFIEDLTDGMSCRMLFSH, the amyloid nucleation score is reported as “inactive”. Work on LIAFA yielded an amyloid nucleation score of 2.53 ± 0.069. With RMGHVFMYDYHIV the amyloid nucleation score was “inactive”. In the case of GVFAIGANLQANVGNDRAYT, the amyloid nucleation score is reported as “inactive”. For CISRKFFSVRSVYLWYVSAT, the amyloid nucleation score was “inactive”. Work on LFLSDKLPTFSRLNKCMLGV yielded an amyloid nucleation score of -1.31 ± 1.9. Work on FHVSCSSFSKWNHENWHNLK yielded an amyloid nucleation score of 0.006 ± 0.56. With LVICGYDIRN the amyloid nucleation score was “inactive”. In the case of DVNLRTSHYAF, the amyloid nucleation score is reported as “inactive”. In the case of RGAFSPVVWSDRMELLGRWL, the amyloid nucleation score is reported as “inactive”. For DIFVFILMLRTTDSWVLLS, the amyloid nucleation score was “inactive”. In the case of YPCEVLGCDAN, the amyloid nucleation score is reported as “inactive”. With HIVNLFRLYYIAMWGSVCHV the amyloid nucleation score was “inactive”. MCVYITYLNLWSDNSLRDRT showed an amyloid nucleation score of 2.23 ± 0.061. For CKIRGCKVLLDFVMASVDLW, the amyloid nucleation score was “inactive”. In the case of VYWRTVFNLRLVLKSYGAMR, the amyloid nucleation score is reported as “inactive”. In the case of IMIYSQPKGEASCFGCFRLG, the amyloid nucleation score is reported as 0.702 ± 0.17. Substance LDARN has an amyloid nucleation score of -0.213 ± 1.5. In the case of THYEVWGLT, the amyloid nucleation score is reported as “inactive”. With NFLVSIHVFFYCWLSMFTYW the amyloid nucleation score was “inactive”. For WVSSDRHSSLVNWKHGLSQE, the amyloid nucleation score was “inactive”. In the case of WLLHLIYD, the amyloid nucleation score is reported as “inactive”. With GTGMCCLIVSLVFLPLCDIA the amyloid nucleation score was “inactive”. In the case of RSLYWIWWDDSKSNE, the amyloid nucleation score is reported as “inactive”. CNLVVYCMSDNDV gave an amyloid nucleation score of 2.33 ± 0.049. In the case of RALVFIIQVVFRFPCTAGIL, the amyloid nucleation score is reported as “inactive”. With CNCVRWWRSSSTTNG the amyloid nucleation score was “inactive”. For SLWSVEDSGYKC, the amyloid nucleation score was “inactive”. Substance RLYLNSFSHQNSCPRDLDGL has an amyloid nucleation score of 0.969 ± 0.1. For YIGRRNMPNFSSMWMWSQGK, the amyloid nucleation score was “inactive”. Work on PTSKGYVVYKETWVLDRSKM yielded an amyloid nucleation score of 1.07 ± 0.17. For MSVTMMAKWTTLILGIGTGM, the amyloid nucleation score was “inactive”. Work on VGNFSFD yielded an amyloid nucleation score of 0.845 ± 0.16. In the case of YCVQCR, the amyloid nucleation score is reported as “inactive”. For FWLRNHFHSIAGICMFVGYW, the amyloid nucleation score was “inactive”. With GYCNESTVWYDS the amyloid nucleation score was “inactive”. With VFLILFVLPLFYLNDSPGCA the amyloid nucleation score was “inactive”. In the case of WCFHVKTSSLVLSRQWEPLS, the amyloid nucleation score is reported as “inactive”. With RAGYVWTAVLRPHSNVAWFV the amyloid nucleation score was “inactive”. STVFDFSTLNFFCKSCSIFW showed an amyloid nucleation score of 2.22 ± 0.087. In the case of DTQQENCRTRGVRRGPRFCG, the amyloid nucleation score is reported as “inactive”. Work on FGCQTGWRFRFINSNNR yielded an amyloid nucleation score of 1.25 ± 0.14. Work on FTNNCYHLAMY yielded an amyloid nucleation score of -0.456 ± 0.74. For PLFSYLRHSTGCTFAIPNSE, the amyloid nucleation score was “inactive”. With GYLLRFMCCNCIPSTEIMIE the amyloid nucleation score was 2.73 ± 0.056. For TTKQKV, the amyloid nucleation score was “inactive”. In the case of SSPRSMASYQRSKIRWVSEF, the amyloid nucleation score is reported as “inactive”. With PKEYTRAGNVSSRRGLFYHF the amyloid nucleation score was “inactive”. For LNIIP, the amyloid nucleation score was “inactive”. For TARYMLSKYVTLCNDVSI, the amyloid nucleation score was 0.984 ± 0.12. In the case of DNVIYPASYGVVRRNTRHGF, the amyloid nucleation score is reported as “inactive”. With NPWPAWPGTSCIRDLQTSIR the amyloid nucleation score was “inactive”. NWDRTIMCMYY showed an amyloid nucleation score of 2.08 ± 0.075. With ASIGIRFVDCLYSVLRRWMF the amyloid nucleation score was “inactive”. With NMGWSSSYH the amyloid nucleation score was “inactive”. For WARIYKMLIF, the amyloid nucleation score was “inactive”. For KKDQTMVES, the amyloid nucleation score was “inactive”. For VGLLVMSVGIERTLWE, the amyloid nucleation score was “inactive”. HNRRKR gave an amyloid nucleation score of -0.16 ± 0.4. With RLLLMSRSLMIRFVLSLVLE the amyloid nucleation score was “inactive”. For FNKNTDRGI, the amyloid nucleation score was “inactive”. With SLYRGYLFGCGQFDNIVYEL the amyloid nucleation score was “inactive”. In the case of KVCNSF, the amyloid nucleation score is reported as “inactive”. For GCFILLNWVMQGKLAYTSLI, the amyloid nucleation score was “inactive”. With PHMQCLINF the amyloid nucleation score was “inactive”. With TRSRFWRRTKLPLVSVRYHN the amyloid nucleation score was “inactive”. For KRGNQGGAMEDFLCNADIRV, the amyloid nucleation score was “inactive”. With FGQCNQVCCSEWDKD the amyloid nucleation score was “inactive”. With MLRSDPS the amyloid nucleation score was “inactive”. With YKFFGDLKVAYFGKVKIE the amyloid nucleation score was “inactive”. In the case of VLIYDVCCALNLCCGFRTFG, the amyloid nucleation score is reported as 1.77 ± 0.081. In the case of FQVEKQF, the amyloid nucleation score is reported as “inactive”. With NLDYLVNLLCDYLES the amyloid nucleation score was -0.703 ± 1.9. With KGVDQGISECFLAVWFGRMN the amyloid nucleation score was “inactive”. With VREFTFYDV the amyloid nucleation score was “inactive”. For MSFRIVFLPC, the amyloid nucleation score was “inactive”. In the case of WNLYCAFSPDYRLNIWTLQI, the amyloid nucleation score is reported as “inactive”. For QINWTGHLSMSFICFLNSRV, the amyloid nucleation score was “inactive”.
